Measured values taken from publication PMC6030046, “Trapping of the transport-segment DNA by the ATPase domains of a type II topoisomerase” (Nature Communications, 2018).

B1: 6-mer GCGCGC duplex (dsDNA)
DNA 1: GCGCGC
DNA 2: GCGCGC
B2: 14-mer T-segment duplex (dsDNA)
DNA 1: GCATATATATATGC
DNA 2: GCATATATATATGC
B3: Streptococcus pneumoniae ParE44 ATPase domain (residues 1-402) (domain or fragment, UniProt Q59961 1-402, looked up)
chain: MSKKEININNYNDDAIQVLEGLDAVRKRPGMYIGSTDGAGLHHLVWEIVDNAVDEALSGFGDRIDVTINKDGSLTVQDHGRGMPTGMHAMGIPTVEVIFTILHAGGKFGQGGYKTSGGLHGVGSSVVNALSSWLEVEITRDGAVYKQRFENGGKPVTTLKKIGTAPKSKTGTKVTFMPDATIFSTTDFKYNTISERLNESAFLLKNVTLSLTDKRTNEAIEFHYENGVQDFVSYLNEDKEILTPVLYFEGEDNGFQVEVALQYNDGFSDNILSFVNNVRTKDGGTHETGLKSAITKVMNDYARKTGLLKEKDKNLEGSDYREGLAAVLSILVPEEHLQFEGQTKDKLGSPLARPVVDGIVADKLTFFLMENGELASNLIRKAIKARDAREAARKARDESRNG
notes: ParE subunit of topoisomerase IV, Streptococcus pneumoniae, UniProt Q59961, residues 1-402 (ATPase domain); Crystallised as a closed dimer with AMP-PNP, Mg2+ and duplex DNA; also called ParE ATPase domain; N-terminal ParE44; source: E. coli BL21 λDE3, purified (Ni-NTA)

Target: T1, ParE44 (topoisomerase IV ParE ATPase domain) (Streptococcus pneumoniae, UniProt Q59961 1-402)
Assay: X-ray crystallography (1.97 A); AMP-PNP, Mg2+; side-bound outside the hole, two duplexes per dimer; Co-crystallization: protein:DNA 1:2.2, 10 mM MgCl2, 2 mM AMP-PNP, protein in 20 mM Tris-HCl pH 7.5, 100 mM NaCl, 1 mM 2-mercaptoethanol; 14-mer: 50 mM HEPES pH
Conditions: protein: recombinant; tags: C-terminal 6xHis; chain copies: 2; blunt; self-complementary

Question: Does B1 bind?
Answer: Result: binds

Target: Streptococcus pneumoniae topoisomerase IV ParC subunit, full length (Streptococcus pneumoniae) (UniProt P72525)
Assay: not given
Conditions: not given

Question: How did the Cleavage: ATP-independent quinolone-promoted DNA cleavage activity of topo IV reconstituted from ParC and ParE, relative to wild type turn out when “ParE K291Q, full length (from UniProt Q59961 1-647) (enzyme)” was run?
Answer: Its Cleavage: ATP-independent quinolone-promoted DNA cleavage activity of topo IV reconstituted from ParC and ParE, relative to wild type is 100%.

Question: Which Cleavage: ATP-independent quinolone-promoted DNA cleavage activity of topo IV reconstituted from ParC and ParE, relative to wild type does the source give for “ParE R321Q, full length (from UniProt Q59961 1-647) (enzyme)” here?
Answer: Its Cleavage: ATP-independent quinolone-promoted DNA cleavage activity of topo IV reconstituted from ParC and ParE, relative to wild type is 100%.

Question: “ParE R396Q, full length (from UniProt Q59961 1-647) (enzyme)” was tested. Which Cleavage: ATP-independent quinolone-promoted DNA cleavage activity of topo IV reconstituted from ParC and ParE, relative to wild type did it give?
Answer: The Cleavage: ATP-independent quinolone-promoted DNA cleavage activity of topo IV reconstituted from ParC and ParE, relative to wild type was 100%.

Question: “Streptococcus pneumoniae topoisomerase IV ParE subunit, wild type, full length (from UniProt Q59961 1-647) (enzyme)” was tested. Which Cleavage: ATP-independent quinolone-promoted DNA cleavage activity of topo IV reconstituted from ParC and ParE, relative to wild type did it give?
Answer: Its Cleavage: ATP-independent quinolone-promoted DNA cleavage activity of topo IV reconstituted from ParC and ParE, relative to wild type is 100%.

Question: How did the Cleavage: ATP-independent quinolone-promoted DNA cleavage activity of topo IV reconstituted from ParC and ParE, relative to wild type turn out when “ParE R353A, full length (from UniProt Q59961 1-647) (enzyme)” was run?
Answer: The Cleavage: ATP-independent quinolone-promoted DNA cleavage activity of topo IV reconstituted from ParC and ParE, relative to wild type was 100%.

Question: With “ParE K346Q/R353A, full length (from UniProt Q59961 1-647) (enzyme)” as the molecule, how does the Cleavage: ATP-independent quinolone-promoted DNA cleavage activity of topo IV reconstituted from ParC and ParE, relative to wild type read?
Answer: The Cleavage: ATP-independent quinolone-promoted DNA cleavage activity of topo IV reconstituted from ParC and ParE, relative to wild type was 100%.

Question: “ParE R353Q, full length (from UniProt Q59961 1-647) (enzyme)” was tested. Which Cleavage: ATP-independent quinolone-promoted DNA cleavage activity of topo IV reconstituted from ParC and ParE, relative to wild type did it give?
Answer: The Cleavage: ATP-independent quinolone-promoted DNA cleavage activity of topo IV reconstituted from ParC and ParE, relative to wild type was 100%.

Question: With “ParE K313Q/E316Q, full length (from UniProt Q59961 1-647) (enzyme)” as the molecule, how does the Cleavage: ATP-independent quinolone-promoted DNA cleavage activity of topo IV reconstituted from ParC and ParE, relative to wild type read?
Answer: The Cleavage: ATP-independent quinolone-promoted DNA cleavage activity of topo IV reconstituted from ParC and ParE, relative to wild type was 100%.

Question: For “ParE S268A, full length (from UniProt Q59961 1-647) (enzyme)”, which Cleavage: ATP-independent quinolone-promoted DNA cleavage activity of topo IV reconstituted from ParC and ParE, relative to wild type is on record?
Answer: Its Cleavage: ATP-independent quinolone-promoted DNA cleavage activity of topo IV reconstituted from ParC and ParE, relative to wild type is 100%.

Question: How did the Cleavage: ATP-independent quinolone-promoted DNA cleavage activity of topo IV reconstituted from ParC and ParE, relative to wild type turn out when “ParE K281Q/D282A, full length (from UniProt Q59961 1-647) (enzyme)” was run?
Answer: Its Cleavage: ATP-independent quinolone-promoted DNA cleavage activity of topo IV reconstituted from ParC and ParE, relative to wild type is 100%.

Question: How did the Cleavage: ATP-independent quinolone-promoted DNA cleavage activity of topo IV reconstituted from ParC and ParE, relative to wild type turn out when “ParE D269V, full length (from UniProt Q59961 1-647) (enzyme)” was run?
Answer: Its Cleavage: ATP-independent quinolone-promoted DNA cleavage activity of topo IV reconstituted from ParC and ParE, relative to wild type is 100%.

Question: How did the Cleavage: ATP-independent quinolone-promoted DNA cleavage activity of topo IV reconstituted from ParC and ParE, relative to wild type turn out when “ParE K346Q, full length (from UniProt Q59961 1-647) (enzyme)” was run?
Answer: Its Cleavage: ATP-independent quinolone-promoted DNA cleavage activity of topo IV reconstituted from ParC and ParE, relative to wild type is 100%.

Question: “ParE R400Q, full length (from UniProt Q59961 1-647) (enzyme)” was tested. Which Cleavage: ATP-independent quinolone-promoted DNA cleavage activity of topo IV reconstituted from ParC and ParE, relative to wild type did it give?
Answer: The Cleavage: ATP-independent quinolone-promoted DNA cleavage activity of topo IV reconstituted from ParC and ParE, relative to wild type was 100%.

Target: T1, ParE44 (topoisomerase IV ParE ATPase …)
Assay: X-ray crystallography (2.83 A); AMP-PNP, Mg2+; DNA kinked in the dimer hole, one duplex per dimer; putative intercalated AMP-PNP; Co-crystallization: protein:DNA 1:2.2, 10 mM MgCl2, 2 mM AMP-PNP, protein in 20 mM Tris-HCl pH 7.5, 100 mM NaCl, 1 mM 2-mercaptoethanol; 14-mer: 50 mM HEPES pH
Conditions: protein: recombinant; tags: C-terminal 6xHis; chain copies: 2; blunt; self-complementary

Question: Does B2 bind?
Answer: Result: binds

Target: the molecule itself
Assay: crystal structure; ParE44 co-crystallised with 14-mer duplex DNA 5'-…-3', 2 mM AMP-PNP, 10 mM MgCl2; sitting drop, 50 mM HEPES pH 7.0, 5 mM MgCl2, 25% PEG MME 550; through-hole DNA bound complex, space group C2, 2.83 Å
Conditions: not given

Question: Does B3 bind?
Answer: Result: binds
